Key:
[1] = system: Adjuvant-Induced Arthritis (AIA) in Lewis Rat; assay: Lewis rat adjuvant-induced arthritis (AIA) model; type: in vivo; details: for % Max Change in Paw Volume / % Max Change in body weight: day of maximum in brackets; for Spleen weight with treatment (in words): regimens of Table 4
From the text: Animal and Facility: 75 female Lewis Rats at the age of 6 weeks were allowed to acclimate for 7 days in the animal facility (Cephrim Biosciences, Inc., Wellesley, Mass.). Animal housing, handling and procedures followed protocols and guidelines approved by the Institutional Animal Care and Use Committee (IACUC) of Cephrim Biosciences, Inc.
In vivo Adjuvant-Induced Arthritis (AIA) in Lewis Rat: The adjuvant used for induction of arthritis was purchased from Chondrex Inc. (Redmond, Wash.), a suspension that contains 10 mg/mL of heat-killed mycobacteria in incomplete Freund's adjuvant. On the day of induction, the rat was first anesthetized and 0.05 mL of the Complete Freund's Adjuvant (CFA) was subcutaneously injected into the sub-plantar area of the rat footpad. The needle was inserted just under the skin of the footpad pointing toward the ankle to maximize the immune response to the CFA. The rat body weight, paw volumes and clinical assessments were monitored closely after the induction. Once the secondary swelling appeared around the opposite rat paws or ankles, the rats were assigned in one of 10 groups (N=5) according to the severity of arthritis (e.g. the paw volume) and the treatments started at that time (see Table 4).
Rat arthritis was evaluated for body weight, paw volumes and clinical score once every other day. Special care including placing water and food gel supplements in the cages were given for those rats once it became difficult to move around due to their hind limb arthritis. The severity of arthritis was scored by visual inspection. Three un-injected paws were scored on a scale of 0 to 4, where 0=normal; 1, only on few digits; 2, on the paw; 3, on the ankle and 4, all swelling below ankle. The maximum score was 12. In addition to daily scores, the maximum arthritis index (MAI) was calculated at the end of the study for each rat by adding the greatest score recorded for each paw. Foot swelling was also determined objectively by measuring paw volume with a plethysmograph for the secondary arthritis (un-injected foot) and thickness using a caliper for the primary arthritis (injected foot).
Treatment Preparation: Dexamethasone stock was first dissolved in dimethyl sulfoxide at 1 mg/ml and kept in dark at room temperature. The corresponding dosing solution was prepared prior to each treatment by a 1:10 fold dilution with phosphate buffered saline (PBS). The dexamethasone dosing solution was given to the rats subcutaneously (SC) at 10 mL/kg. Tofacitinib (unconjugated parent drug) was added in 5% methylcellulose at 1 mg/mL and 0.25% of Tween-80. A homogeneous dosing suspension of tofacitinib was prepared using a mechanical homogenizer. The tofacitinib suspension was prepared daily and was given to rats by an oral gavage at 10 mL/kg. CDP-hexanoate-tofacitinib conjugate nanoparticles were kept in 4° C. until the end of the dosing period. They were given to their respective groups of rats by subcutaneous route at 10 mL/kg.

[2] = Tofacitinib dosed 5 mg PO twice daily; cited from earlier work
[3] = Pharmacokinetic study, plasma levels of free and bound Tofacitinib by HPLC/MS/MS; type: in vivo, Mice (C57 B16 strain); parameters: Cl: unit not given here; details: mice; for AUC / Cl / Vd / t1/2: analyte: Conjugate, single bolus 3 mg/kg; for Bioavailability via SC, of the IV based on AUC / Half-life for conjugate after SC dosing relative to the IV dose: 3 mg/kg SC vs IV; for IV AUC relative to the drug dosed PO alone: conjugate IV vs unconjugated tofacitinib PO
Description: Mice (C57 B16 strain) were treated by single bolus injection of each linker at 3 mg/kg. Blood samples were collected from individual animals and plasma made using EDTA as an anticoagulant. Levels of free and bound Tofacitinib were measured in the plasma samples using HPLC/MS/MS.

[4] = Particle size of formulated nanoparticles (particle sizer); type: physicochemical; details: nanoparticles in water after TFF and 0.22 µm filtration
Description: (§1) The reaction mixture was worked up by precipitating the polymer in 15 volumes of acetone (150 mL). The polymer precipitated out immediately as a lump. The solution was stirred for 30 minutes and then the slightly turbid supernatant was decanted. The polymer precipitate was stirred in […] for 30 minutes and then dissolved 70 mL of water to prepare a ˜10 mg/mL polymer concentration. The polymer dissolved smoothly in water and the polymer solution was then filtered through a 0.22 p.m PES membrane. This solution was then washed using TFF (3×30K capsules) using 10 volumes of ultrapure water at pH 3. After diafiltration, the solution was concentrated down to approximately half the volume and the concentrated solution was filtered with a 0.22 p.m cellulose nitrate membrane. The filtered solution was analyzed for particle size using a particle sizer and Tofacitinib concentration using HPLC.
as §1, with “in 90” for “70”

[5] = Drug release and stability of CDP-linker-Tofacitinib conjugate nanoparticles in PBS; type: physicochemical; details: 1x PBS pH 7.4, 37° C.; for In vitro release of free drug (24 hrs in PBS at 37° C.): free drug/conjugated drug
Description: The drug release and stability method experiments were run using the following CDP-linker-Tofacitinib nanoparticles: CDP-Gly-Tofac (prepared by the method described in Example 5) and CDP-Hex-Tofac) (prepared by the method described in Example 10).
A 2.5 mg/mL (with regard to polymer) solution of each CDP-linker-Tofac nanoparticle was prepared in lx PBS buffer (pH=7.4). An aliquot of 150 μL was transferred into corresponding HPLC vials. A vial containing each CDP-linker-Tofac nanoparticle in PBS pH 7.4 for each designated time point was placed in a water bath at 37° C. Samples were mixed using a water bath shaker at 100 rpm during the experiments. At each designated time point, a vial was removed for each CDP-linker-Tofac nanoparticle and processed for HPLC using a sample preparation procedure.
To prepare a sample for HPLC analysis, each vial containing 150 μL of sample was mixed with 75 μL of 0.1% formic acid in acetonitrile. If there was any precipitated material in the vial, the contents were also stirred to dissolve the precipitate. If the sample was still opaque, an additional 25 μL of 0.1% formic acid in acetonitrile was added. HPLC analysis was used to determine the amount of free Tofacitinib and the amount of conjugated Tofacitinib in the sample for a given time point.
For the HPLC analysis at each time point, the peak areas of all relevant peaks from the chromatograms were retrieved and the concentration of free and conjugated Tofacitinib was calculated. The sample degradation was calculated based on the percentage of the amount of conjugated drug with regard to the initial starting point of the experiment (at t=0). The drug release was calculated based on the sum of free Tofacitinib and Tofacitinib main degradants at each time point.

Row | Molecule | Spleen weight with treatment (in words) ([1]; AIA rats) | AUC ([3]; route IV, plasma) | Cl ([3]; route IV, plasma) | Vd ([3]; route IV, plasma) | t1/2 ([3]; route IV, plasma) | AUC ([3]; route SC, plasma) | Cl ([3]; route SC, plasma) | Vd ([3]; route SC, plasma) | t1/2 ([3]; route SC, plasma) | Half-life for conjugate after SC dosing relative to the IV dose [3] | IV AUC relative to the drug dosed PO alone [3] | Dv50 [4] | Dv90 [4] | Particle PDI [4] | Zavg [4] | In vitro degradation of conjugate (24 hrs in PBS at 37° C.) [5] | In vitro release of free drug (24 hrs in PBS at 37° C.) [5] | also measured
1 | C[C@@H]1CCN(C(=O)CC#N)C[C@@H]1N(C)c1ncnc2[nH]ccc12 [Tofacitinib, reference compound] | declined |  |  |  |  |  |  |  |  |  |  |  |  |  |  |  |  | AVE Spleen Weight ([1]; 10 mg/kg, bid x 14, po): 0.392 g; MAI (maximum arthritis index) ([1]; 10 mg/kg, bid x 14, po): 30; % Max Change in Paw Volume ([1]; 10 mg/kg, bid x 14, po): +30.7% (D14); % Max Change in body weight ([1]; 10 mg/kg, bid x 14, po): −9.0% (d13); half-life [2]: 3 to 5 h
2 | C[C@@H]1C[C@H]2[C@@H]3CCC4=CC(=O)C=C[C@]4(C)[C@@]3(F)[C@@H](O)C[C@]2(C)[C@@]1(O)C(=O)CO [Dexamethasone, reference compound] | declined |  |  |  |  |  |  |  |  |  |  |  |  |  |  |  |  | AVE Spleen Weight ([1]; 1 mg/kg, q2d x 7, sc): 0.253 g; MAI (maximum arthritis index) ([1]; 1 mg/kg, q2d x 7, sc): 29; % Max Change in Paw Volume ([1]; 1 mg/kg, q2d x 7, sc): +26.5% (d13); % Max Change in body weight ([1]; 1 mg/kg, q2d x 7, sc): −13.5% (d18)
3 | CDP-Tofacitinib Ethylene Glycol Monoglycinate [CDP-Glycine-Tofacitinib] |  | 2061.85 µg·h/mL | 0.04 | 2.6 mL | 50 h | 1254.162 µg·h/mL | 0.06 | 2.4 mL | 28 h | doubling of half-life | ~1000 × | 11.4 nm | 19.8 nm | 0.418 | 26.23 nm | 15.23% | 9.45% | Bioavailability via SC, of the IV based on AUC [3]: 60%; Free levels, of the circulating conjugate ([3]; 3 mg/kg, plasma): less than 1%; In vitro release of free drug (24 hrs in PBS at 37° C.) ([5]; listed as CDP-Glycine-Tofac): 9.45%
4 | CDP-Tofacitinib Ethylene Glycol Monohexanoate [CDP-Hexanoate-Tofacitinib] | maintained | 1030.865 µg·h/mL | 0.07 | 2.4 mL | 23.2 h | 569.866 µg·h/mL | 0.132 | 8.9 mL | 47 h | increased by two fold | ~1000 × | 12.8 nm | 21.7 nm | 0.218 | 20.64 nm | 3.54% | 2.06% | Bioavailability via SC, of the IV based on AUC ([3]; 3 mg/kg): 60%; Bioavailability via SC, of the IV based on AUC ([3]; listed as CDP-Hexanoate-Tofacitinib Conjugate, 3 mg/kg): approximately 60%; Levels of released drug, of the total ([3]; 3 mg/kg, plasma): approximately 5%; In vitro release of free drug (24 hrs in PBS at 37° C.) ([5]; listed as CDP-Hex-Tofac): 2.06%; AVE Spleen Weight ([1]; 0.3 mg/kg, q7d x 2, sc): 0.643 g; MAI (maximum arthritis index) ([1]; 0.3 mg/kg, q7d x 2, sc): 41; % Max Change in Paw Volume ([1]; 0.3 mg/kg, q7d x 2, sc): +48.0% (d16); % Max Change in body weight ([1]; 0.3 mg/kg, q7d x 2, sc): −12.9% (d16); AVE Spleen Weight ([1]; 1 mg/kg, q7d x 2, sc): 0.642 g; MAI (maximum arthritis index) ([1]; 1 mg/kg, q7d x 2, sc): 46; % Max Change in Paw Volume ([1]; 1 mg/kg, q7d x 2, sc): +45.2% (d16); % Max Change in body weight ([1]; 1 mg/kg, q7d x 2, sc): −14.5% (d18); Paw volume as a percent of the initial paw volume (Day 1) ([1]; 3 mg/kg q7d×2 sc, after two cycles (28 days), FIG. 16): below 100%; AVE Spleen Weight ([1]; 3 mg/kg, q7d x 2, sc): 0.606 g; MAI (maximum arthritis index) ([1]; 3 mg/kg, q7d x 2, sc): 39; % Max Change in Paw Volume ([1]; 3 mg/kg, q7d x 2, sc): +42.5% (d16); % Max Change in body weight ([1]; 3 mg/kg, q7d x 2, sc): −9.3% (d13); Cumulative dose giving similar efficacy, of the cumulative dose of unconjugated tofacitinib ([1]; 3 mg/kg/week vs. 140 mg/kg/week): 2%; Ankle swelling after treatment, of initial paw volume ([1]; AIA rats, level of healthy rats): 100%

Reference: patent publication US20180117168A1, “CYCLODEXTRIN-BASED POLYMERS FOR THERAPEUTIC DELIVERY” (priority 2013, published 2018)
